Two molecules from article PMC4183573, “Cyclophilin A Associates with Enterovirus-71 Virus Capsid and Plays an Essential Role in Viral Infection as an Uncoating Regulator” (PLoS Pathogens, 2014) can be followed below.

This test has as its target T1, recombinant human CypA without a GST tag (human, UniProt P62937 1-165).
T1 construct: cyclophilin A (CypA), human, cloned into pGEX-6p-1; source: E. coli BL21 (DE3), purified (GST column, PreScission Protease, Superdex-75); not shown: GST, N-terminal, cleaved
The experiment in a line: pull-down; recombinant human CypA (200 µg) with 50 µl glutathione-sepharose beads holding GST, GST-1S or GST-1P (200 µg) in 300 µl buffer (50 mM Tris-HCl pH 8.0, 150 mM NaCl, 1% Nonidet P-40, 2 mM EDTA), overnight at 4°C; eluted with GSH; blot for GST and CypA. Conditions: both partners purified.

Where no end group is shown, it is not given here.

B1: GST-1S: peptide of the H-I loop of EV71 VP1 (239-GSSKSKYPL-247) fused to GST (peptide)
chain: GSSKSKYPL
modifications: also: fused to GST
notes: H-I loop of the capsid protein VP1 of EV71, residues 239-247; numbers count on: the VP1 protein, not the polypeptide; source: E. coli BL21 (DE3), held on glutathione-sepharose (GST column) beads; not shown: GST, N-terminal, kept
Turning to B1, the binding result is “binds”.

B2: GST-1P: H-I loop of EV71 VP1 with the S243P substitution (239-GSSKPKYPL-247) fused to GST (peptide)
chain: GSSKPKYPL
modifications: also: fused to GST
notes: H-I loop of the capsid protein VP1 of EV71, residues 239-247, with S243P; numbers count on: the VP1 protein, not the polypeptide; source: E. coli BL21 (DE3), held on glutathione-sepharose (GST column) beads; not shown: GST, N-terminal, kept
Take B2: the binding result is reported as “binds”.
